{"source": "patent US20250051788A1", "assay_in_all_cases": "anti-FLAG IP-MS vs mock IP", "key": {"[1]": {"target": "Thioredoxin superfamily protein (ATHM2) (AT4G03520) (Arabidopsis thaliana) (UniProt Q9SEU8)", "sequence (Q9SEU8 73-186)": "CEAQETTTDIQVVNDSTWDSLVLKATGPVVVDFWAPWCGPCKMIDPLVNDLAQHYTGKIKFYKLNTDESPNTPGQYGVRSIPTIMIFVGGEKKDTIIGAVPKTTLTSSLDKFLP"}, "[2]": {"target": "Nodulin-related protein 1 (NRP1) (AT2G03440) (Arabidopsis thaliana) (UniProt Q9ZQ80)", "sequence (Q9ZQ80 whole entry)": "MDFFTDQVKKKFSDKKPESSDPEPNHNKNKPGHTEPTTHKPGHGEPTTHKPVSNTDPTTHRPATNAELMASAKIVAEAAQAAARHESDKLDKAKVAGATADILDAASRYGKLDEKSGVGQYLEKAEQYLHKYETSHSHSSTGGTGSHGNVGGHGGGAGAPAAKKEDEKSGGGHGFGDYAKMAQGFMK"}, "[3]": {"target": "thioglucoside glucohydrolase 1 (TGG1) (AT5G26000) (Arabidopsis thaliana) (UniProt P37702)", "sequence (P37702 20-541 limits assumed)": "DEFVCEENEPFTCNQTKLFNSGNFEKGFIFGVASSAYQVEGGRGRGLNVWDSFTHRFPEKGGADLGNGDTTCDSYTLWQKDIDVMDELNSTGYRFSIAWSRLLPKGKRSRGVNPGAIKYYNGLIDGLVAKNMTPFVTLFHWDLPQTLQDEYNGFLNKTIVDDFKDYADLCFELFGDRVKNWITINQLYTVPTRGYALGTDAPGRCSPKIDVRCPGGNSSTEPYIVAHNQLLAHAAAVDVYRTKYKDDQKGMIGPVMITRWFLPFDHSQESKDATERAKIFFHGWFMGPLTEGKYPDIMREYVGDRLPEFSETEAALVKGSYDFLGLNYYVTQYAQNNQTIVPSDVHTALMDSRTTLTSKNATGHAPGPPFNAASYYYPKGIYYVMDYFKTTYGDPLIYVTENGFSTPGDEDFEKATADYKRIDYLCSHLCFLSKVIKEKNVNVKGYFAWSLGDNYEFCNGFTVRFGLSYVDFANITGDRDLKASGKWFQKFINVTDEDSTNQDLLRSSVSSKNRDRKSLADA"}, "[4]": {"target": "Phosphoserine aminotransferase (PSAT) (AT4G35630) (Arabidopsis thaliana) (UniProt Q96255)", "sequence (Q96255 52-430)": "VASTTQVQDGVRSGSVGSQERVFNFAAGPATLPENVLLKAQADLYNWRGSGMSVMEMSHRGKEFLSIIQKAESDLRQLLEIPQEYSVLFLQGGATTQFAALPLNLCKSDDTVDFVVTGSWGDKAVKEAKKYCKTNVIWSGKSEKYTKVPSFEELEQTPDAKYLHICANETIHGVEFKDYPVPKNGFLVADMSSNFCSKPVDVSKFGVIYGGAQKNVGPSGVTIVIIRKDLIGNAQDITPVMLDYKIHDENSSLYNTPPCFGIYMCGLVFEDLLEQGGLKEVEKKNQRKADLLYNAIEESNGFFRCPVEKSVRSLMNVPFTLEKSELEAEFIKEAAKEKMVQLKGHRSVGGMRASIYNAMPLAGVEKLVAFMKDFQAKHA"}}, "data": [{"substance": "FLAG-BD (FLAG-tagged minimal Arabidopsis BRN1 protein that contains only the first two RRM domains) (from UniProt Q8LFS6 2-199)", "values": [{"measurement": "Log2(FC) Replicate 1/ Mock", "setting": "[1]", "result": 0.585, "unit": "log2"}, {"measurement": "Log2(FC) Replicate 2/ Mock", "setting": "[1]", "result": 2.17, "unit": "log2"}, {"measurement": "Log2(FC) Replicate 3/ Mock", "setting": "[1]", "result": 3.39, "unit": "log2"}, {"measurement": "Log2(FC) Replicate 4/ Mock", "setting": "[1]", "result": 3.09, "unit": "log2"}, {"measurement": "Log2(FC) Replicate 1/ Mock", "setting": "[2]", "result": 2, "unit": "log2"}, {"measurement": "Log2(FC) Replicate 2/ Mock", "setting": "[2]", "result": 2.5, "unit": "log2"}, {"measurement": "Log2(FC) Replicate 3/ Mock", "setting": "[2]", "result": 1.74, "unit": "log2"}, {"measurement": "Log2(FC) Replicate 4/ Mock", "setting": "[2]", "result": 1.87, "unit": "log2"}, {"measurement": "Log2(FC) Replicate 1/ Mock", "setting": "[3]", "result": -0.214, "unit": "log2"}, {"measurement": "Log2(FC) Replicate 2/ Mock", "setting": "[3]", "result": 0.697, "unit": "log2"}, {"measurement": "Log2(FC) Replicate 3/ Mock", "setting": "[3]", "result": 1.95, "unit": "log2"}, {"measurement": "Log2(FC) Replicate 4/ Mock", "setting": "[3]", "result": 1.84, "unit": "log2"}, {"measurement": "Log2(FC) Replicate 1/ Mock", "setting": "[4]", "result": 3.09, "unit": "log2"}, {"measurement": "Log2(FC) Replicate 2/ Mock", "setting": "[4]", "result": 3.17, "unit": "log2"}, {"measurement": "Log2(FC) Replicate 3/ Mock", "setting": "[4]", "result": 1.81, "unit": "log2"}, {"measurement": "Log2(FC) Replicate 4/ Mock", "setting": "[4]", "result": 1.81, "unit": "log2"}]}]}
